Experiments:
[1] = molecular target: T1, human CTLA-4 on the cell surface (human, UniProt P16410 36-223); test: flow cytometry competition, CHO-hCTLA-4 cells, biotin-human CD80
T1 construct: whole, on cells; also called CHO-hCTLA-4 cells; CHOK1-hCTLA4 cells
Experimental: CHO-hCTLA-4 cells were obtained by trypsin digestion, washed twice with PBS containing 2% FBS (FACS buffer), and resuspended in FACS buffer. 200 μL of the cells were added to a 96-well U-bottom plate, approximately 2×10⁵ cells/well. After centrifugation at 300 g for 5 minutes, the supernatant was discarded. […] After washing three times with FACS buffer, 100 μL/well of 1:800 diluted PE Streptavidin was added and incubated at 4° C. for 50 min. After washing three times with FACS buffer, 150 μL/well of PBS was added to resuspend the cells, and the fluorescence signal was detected on a flow cytometer (BECKMAN COULTER cytoFLEX). The four-parameter model was used to fit the binding activity and the IC₅₀ value of the blocking activity of each antibody was calculated.

[2] = molecular target: T2, human PD-1 on the cell surface (human, UniProt Q15116 25-288); test: flow cytometry, 293T-hPD-1 cells, batch FACS#2
T2 construct: whole, on cells; also called cell surface PD-1
T2 sequence (Q15116 25-288): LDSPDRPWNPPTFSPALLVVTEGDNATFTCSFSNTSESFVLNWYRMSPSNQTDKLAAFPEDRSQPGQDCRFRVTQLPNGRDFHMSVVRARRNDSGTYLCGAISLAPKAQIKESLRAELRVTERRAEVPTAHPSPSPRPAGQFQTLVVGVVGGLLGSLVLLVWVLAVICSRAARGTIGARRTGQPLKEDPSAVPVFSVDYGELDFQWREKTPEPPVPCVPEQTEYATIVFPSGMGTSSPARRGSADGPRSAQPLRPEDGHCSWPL
Experimental: After centrifugation at 300 g for 5 minutes, the supernatant was discarded. The antibodies were serially diluted 3-fold with FACS buffer to obtain two gradient series solution FACS #1 and FACS #2, with the starting concentration of 200 nM (Table 5, FACS #1) or 100 nM (Table 5, FACS #2, FIG. 2), respectively. Then 100 μL/well was added to a 96-well plate in triplicate, mixed, and incubated at 4° C. for 60 min. The plate was centrifuged and washed three times with FACS buffer. 100 μL/well of 1:800 diluted AF647-anti-hIgG(H+L) (Jackson, Catalog No.: 109-605-003) was added and incubated at 4° C. for 50 minutes. After washing the plate three times with FACS buffer, 100 μL/well of FACS buffer was added to resuspend the cells, and the fluorescence signal was detected on a flow cytometer (BECKMAN COULTER cytoFLEX). The binding activity was fitted using a four-parameter model to calculate the EC₅₀ value of each antibody binding to PD-1.

[3] = molecular target: T1, human CTLA-4 on the cell surface; test: flow cytometry, CHO-hCTLA-4 cells, batch FACS#4
[4] = molecular target: T3, hCTLA4-mFc (DIMA BIOTECH, Catalog No. PME100017) (human, UniProt P16410 36-161, limits assumed); test: flow cytometry: antibody titrated on 293T-hPD-1 cells, then mixture of biotin-hVEGF165 and hCTLA4-mFc; AF647 anti-mIgG signal; CTLA-4 signal after binding to cell surface PD-1
T3 construct: Bought protein; also called human CTLA-4 mouse Fc fusion; not shown: mouse Fc (mFc)
T3 sequence (P16410 36-161 limits assumed): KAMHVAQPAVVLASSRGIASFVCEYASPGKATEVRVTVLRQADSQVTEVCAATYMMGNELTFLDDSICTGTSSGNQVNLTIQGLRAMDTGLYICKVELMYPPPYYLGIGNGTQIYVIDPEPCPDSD
Experimental: (§1) 200 μL/well of the cells were added to a 96-well U-bottom plate. After centrifugation at 300 g for 5 minutes, the supernatant was discarded and 100 μL of antibody solution serially diluted with FACS buffer was added to each well in triplicate (with starting concentration of 200 nM, 3-fold serial dilution, and the same volume of FACS buffer was used as a negative control). Mixed well and incubated at 4° C. for 60 min. After washing the plate three times with FACS buffer, a mixture consisting of 1 μg/mL Biotin-hVEGF165 and 1 μg/mL hCTLA4-mFc (DIMA BIOTECH, Catalog No.: PME100017) in a 1:1 volume ratio was added to each well at 100 μL/well to detect the simultaneously binding activity of the trispecific antibodies to CTLA-4 and VEGF after binding to cell surface PD-1. […] After washing the plate three times with FACS buffer, 100 μL/well of PBS solution was added to resuspend the cells, and the fluorescence signal was detected on a flow cytometer (BECKMAN COULTER cytoFLEX). The binding activity was fitted using a four-parameter model, and the EC₅₀ value of each antibody was calculated.

[5] = molecular target: T4, human VEGF165-his protein (Acro, Catalog No. VE5-H5248) (human, UniProt P15692-4 27-191); test: competitive ELISA, VEGF165-His coated, biotin-human KDR
T4 construct: Bought protein; also called hVEGF165-His; VEGFA; not shown: his tag
T4 sequence (P15692 other isoform, or with tags, fused parts or gaps limits assumed): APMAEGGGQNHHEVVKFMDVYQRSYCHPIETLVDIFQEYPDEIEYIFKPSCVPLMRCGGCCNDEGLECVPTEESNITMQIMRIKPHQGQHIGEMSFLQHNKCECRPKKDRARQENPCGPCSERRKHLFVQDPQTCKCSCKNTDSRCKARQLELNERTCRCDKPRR

[6] = molecular target: T5, Biotinylated Human VEGF165 (Acro, Catalog No. VE5-H82Q0) (human, UniProt P15692-4 27-191, biotinylated (site not stated)); test: flow cytometry: antibody titrated on 293T-hPD-1 cells, then mixture of biotin-hVEGF165 and hCTLA4-mFc; PE streptavidin signal; VEGF signal after binding to cell surface PD-1
T5 construct: Bought protein; also called Biotinylated-hVEGF165; Biotin-hVEGF165
T5 sequence (P15692 other isoform, or with tags, fused parts or gaps limits assumed): as above
Experimental: as §1

T1 sequence (P16410 36-223): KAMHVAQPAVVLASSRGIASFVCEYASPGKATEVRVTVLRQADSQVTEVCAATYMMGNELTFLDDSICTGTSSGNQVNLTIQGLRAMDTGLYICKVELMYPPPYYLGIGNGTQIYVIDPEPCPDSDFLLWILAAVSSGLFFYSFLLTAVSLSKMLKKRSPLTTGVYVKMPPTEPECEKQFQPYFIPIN

IC50 [1]: 22.6 nM | EC50 [2]: 2.37 nM | EC50 [3]: 4.86 nM | EC50 [4]: 3.32 nM | IC50 [5]: 6.76 nM | EC50 [6]: 2.83 nM
B1: HC010-F10 (trispecific antibody, human IgG4 S228P, kappa)
heavy: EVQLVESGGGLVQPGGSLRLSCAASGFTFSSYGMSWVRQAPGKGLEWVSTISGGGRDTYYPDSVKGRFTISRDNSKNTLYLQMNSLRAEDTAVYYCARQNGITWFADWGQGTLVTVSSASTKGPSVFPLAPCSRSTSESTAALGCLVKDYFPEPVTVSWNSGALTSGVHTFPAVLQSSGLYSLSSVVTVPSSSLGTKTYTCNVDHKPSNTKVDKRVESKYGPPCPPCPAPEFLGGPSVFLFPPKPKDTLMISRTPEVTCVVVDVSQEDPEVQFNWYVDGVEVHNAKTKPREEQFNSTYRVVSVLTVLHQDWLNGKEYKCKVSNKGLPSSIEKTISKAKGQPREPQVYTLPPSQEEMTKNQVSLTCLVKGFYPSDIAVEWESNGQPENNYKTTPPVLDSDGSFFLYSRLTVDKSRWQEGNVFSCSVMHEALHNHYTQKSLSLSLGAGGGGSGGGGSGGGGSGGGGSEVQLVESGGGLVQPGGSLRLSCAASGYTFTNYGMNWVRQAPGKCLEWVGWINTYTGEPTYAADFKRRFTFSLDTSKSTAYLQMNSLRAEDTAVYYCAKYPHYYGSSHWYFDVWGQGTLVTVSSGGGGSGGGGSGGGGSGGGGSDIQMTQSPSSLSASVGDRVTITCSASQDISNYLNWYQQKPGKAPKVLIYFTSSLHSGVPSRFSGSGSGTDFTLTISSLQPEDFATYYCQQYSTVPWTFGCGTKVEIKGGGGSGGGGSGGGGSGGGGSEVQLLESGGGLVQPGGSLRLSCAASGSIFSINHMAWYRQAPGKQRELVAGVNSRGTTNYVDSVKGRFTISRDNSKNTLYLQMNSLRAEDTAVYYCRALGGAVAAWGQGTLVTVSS
light: DIQMTQSPSSLSASVGDRVTITCRASESVDNYGISFMNWYQQKPGKAPKLLIYAASNQGSGVPSRFSGSGSGTDFTLTISSLQPEDFATYYCQQSKEVPWTFGGGTKVEIKRTVAAPSVFIFPPSDEQLKSGTASVVCLLNNFYPREAKVQWKVDNALQSGNSQESVTEQDSKDSTYSLSSTLTLSKADYEKHKVYACEVTHQGLSSPVTKSFNRGEC
notes: light: CQ1-3/1-11 VL-kappa; also called H010-F10
